The results in this text go back to publication PMC10872493.

For assay [1], the target named is CP α1N44C β2E84C, labeled with donor and acceptor dyes (single-molecule FRET construct) (mouse) (UniProt Q5RKN9). Description: single-molecule FRET titration.
Assay [2] addresses CP α1S9C β2S161C, labeled with donor and acceptor dyes (single-molecule FRET construct) (mouse) (UniProt Q5RKN9). The experiment in a line: single-molecule FRET titration.

Values joined by “and” are separate entries in the source; they are usually repeats but may differ in a detail not shown here. Equal values may be shown once.

The Kd is the concentration at which binding is half-saturated. A high value points to weaker binding. On to CKIP-1 CPI-motif peptide, for which the Kd in assay [1] was 10 nM and 11 nM.
In assay [2], WASHCAP CPI-motif peptide had an equilibrium dissociation constant (Kd) of 1.4 nM.
